Results taken from paper PMC10496648.

Biological target: Kv4.2-YFP (mouse) (UniProt Q9Z0V2)
Test: FRET or BRET

Sequence of UniProt Q9Z0V2 (Q9Z0V2 whole entry): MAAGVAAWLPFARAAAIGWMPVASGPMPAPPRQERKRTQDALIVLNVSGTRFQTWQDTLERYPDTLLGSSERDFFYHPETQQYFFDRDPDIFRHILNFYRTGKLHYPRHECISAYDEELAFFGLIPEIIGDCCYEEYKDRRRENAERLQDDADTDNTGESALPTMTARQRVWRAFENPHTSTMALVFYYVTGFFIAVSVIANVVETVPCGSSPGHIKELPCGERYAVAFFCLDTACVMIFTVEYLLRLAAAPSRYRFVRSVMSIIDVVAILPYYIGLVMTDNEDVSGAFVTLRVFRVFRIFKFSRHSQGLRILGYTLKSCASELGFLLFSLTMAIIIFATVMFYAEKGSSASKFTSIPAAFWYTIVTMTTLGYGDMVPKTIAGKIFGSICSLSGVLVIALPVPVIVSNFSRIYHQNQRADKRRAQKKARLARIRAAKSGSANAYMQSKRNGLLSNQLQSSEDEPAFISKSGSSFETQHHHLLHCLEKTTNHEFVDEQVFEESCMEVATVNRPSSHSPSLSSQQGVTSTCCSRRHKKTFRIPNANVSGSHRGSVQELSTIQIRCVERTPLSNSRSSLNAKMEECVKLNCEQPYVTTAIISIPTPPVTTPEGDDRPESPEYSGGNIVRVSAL

## KChIP3a-CFP (text) / KChIP2c-CFP (legend, methods) (from UniProt Q9JM59-3 1-220) (natural protein)
  FRET efficiency: 11.2%
  stoichiometry N: 1
